This assay has as its target recombinant enovin (mature human enovin with NH2-terminal 6xHis tag, expressed from hEVNmat/pRSETB in E. coli) (human). The experiment in a line: SPR (BIAcore 3000), enovin immobilized, soluble GFRα3-Fc at three concentrations.

B1: soluble GFRα-3 IgG1-Fc fusion protein (Fc fusion, UniProt O60609 28-371, looked up, not shown: a dimerising Fc or GST)
chain: LAAGDPLPTESRLMNSCLQARRKCQADPTCSAAYHHLDSCTSSISTPLPSEEPSVPADCLEAAQQLRNSSLIGCMCHRRMKNQVACLDIYWTVHRARSLGNYELDVSPYEDTVTSKPWKMNLSKLNMLKPDSDLCLKFAMLCTLNDKCDRLRKAYGEACSGPHCQRHVCLRQLLTFFEKAAEPHAQGLLLCPCAPNDRGCGERRRNTIAPNCALPPVAPNCLELRRLCFSDPLCRSRLVDFQTHCHPMDILGTCATEQSRCLRAYLGLIGTAMTPNFVSNVNTSVALSCTCRGSGNLQEECEMLEGFFSHNPCLTEAIAAKMRFHSQLFSQDWPHPTFAVMAHQ
For B1, the Kd – broadly, the concentration at which binding is half-saturated – came out at 3.1 nM; the koff (commonly the first-order rate constant of dissociation) worked out at 0.000508 s⁻¹; the kon (as a rule, the second-order rate constant of association) is 165000 M⁻¹ s⁻¹.

For the origin of these results see patent US20140162951A1.
